The values below come from patent US20250122303A1 (HUMMINGBIRD BIOSCIENCE PTE, published 2025).

Assay [1] concerns the target T1, mouse HER3 (mouse, UniProt Q61526 20-641).
T1 construct: also called mouse homologue of HER3 (Sino Biological Inc.); M. musculus HER3
Nature of the assay: ELISA; plate coated with target polypeptide, antibody serially diluted, absorbance 450 nm. As for the experimental part: (§1) ELISAs were carried out according to standard protocols. Plates were coated with 0.1 μg/ml of target polypeptide in phosphate-buffered saline (PBS) for 16 h at 4° C. After blocking for 1 h with 1% BSA in Tris buffer saline (TBS) at room temperature, the anti-HER3 antibody was serially diluted with the highest concentration being 10 μg/ml, and added to the plate. Post 1 h incubation at room temperature, plates were washed three times with TBS containing 0.05% Tween 20 (TBS-T) and were then incubated with a HRP-conjugated anti-His antibody (Life Technologies, Inc., USA) for 1 h at room temperature. After washing, plates were developed with colorimetric detection substrate 3,3′,5,5′-tetramethylbenzidine (Turbo-TMB; Pierce, USA) for 10 min. The reaction was stopped with 2M H₂SO₄, and OD was measured at 450 nm.
Background: An ELISA detects its analyte on a solid surface through an enzyme-linked reagent.

The target in assay [2] is T2, cynomolgus macaque HER3 (cynomolgus macaque, UniProt G7PIG5 20-643).
T2 construct: also called monkey homologue of HER3 (Sino Biological Inc.); HER3 cyno
T2 sequence (G7PIG5 entry or part of it): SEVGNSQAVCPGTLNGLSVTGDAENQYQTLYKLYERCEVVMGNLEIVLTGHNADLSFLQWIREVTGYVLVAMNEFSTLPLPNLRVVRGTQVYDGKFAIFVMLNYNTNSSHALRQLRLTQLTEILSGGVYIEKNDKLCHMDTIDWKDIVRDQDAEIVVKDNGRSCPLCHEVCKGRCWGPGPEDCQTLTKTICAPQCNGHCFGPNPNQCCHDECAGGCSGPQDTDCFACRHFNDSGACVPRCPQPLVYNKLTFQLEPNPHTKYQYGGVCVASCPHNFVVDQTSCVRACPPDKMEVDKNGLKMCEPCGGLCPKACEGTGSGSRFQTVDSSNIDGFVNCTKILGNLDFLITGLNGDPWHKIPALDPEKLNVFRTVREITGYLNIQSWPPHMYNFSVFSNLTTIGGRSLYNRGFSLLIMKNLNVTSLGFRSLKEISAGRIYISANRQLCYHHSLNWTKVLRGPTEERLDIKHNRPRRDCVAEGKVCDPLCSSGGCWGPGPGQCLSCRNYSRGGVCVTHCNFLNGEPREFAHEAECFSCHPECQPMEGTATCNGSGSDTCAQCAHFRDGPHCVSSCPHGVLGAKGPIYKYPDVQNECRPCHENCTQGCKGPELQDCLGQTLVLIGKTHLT
The description is as above. How it is done: as §1

Assay [3] addresses T3, human HER3 polypeptide (human, UniProt P21860 20-643).
T3 construct: Recombinant antigen of the ELISAs; also called human HER3 (Sino Biological Inc.); human antigen HER3
The description is as above. How it is done:
as §1

Assay [4] concerns the target T4, rat HER3 (rat, UniProt Q62799 20-641, limits assumed).
T4 construct: also called rat homologue of HER3 (Sino Biological Inc.); R. norvegicus HER3
The assay is described as above. As for the experimental part: as §1

The target in assay [5] is T5, His-tagged human HER3 (human, UniProt P21860 20-643).
T5 construct: Antigen of the BLI experiments and of the HER2-Fc dimerisation ELISA; also called HER3 His; not shown: His tag
Put plainly: Bio-Layer Interferometry (Octet QK384); antibody on anti-Human IgG Capture tips, HIS-tagged human HER3 at 35, 69, 139 and 278 nM. (In BLI a coated tip is dipped into the sample, and binding shifts an interference pattern.)

The target of assay [6] is T5, His-tagged human HER3. Nature of the assay: plate ELISA dimerisation assay; HER2-Fc coated, constant HER3 His and NRG, antibody varied; blocked partner HER2-Fc. How it is done: Plate-based ELISA dimerisation assays were carried out according to standard protocols. Plates were coated with 1 μg/ml HER2-Fc protein. […] Plates were then washed and incubated for 1 hour with secondary anti-HIS HRP antibody. […] The absorbance was read at 450 nm.

For assay [7], the target named is T3, human HER3 polypeptide. Put plainly: ELISA, plate coated with human HER3, antibody titrated, absorbance 450 nm, x axis Log([Ab]) (ug/ml).
Assay [8] deals with T5, His-tagged human HER3. Nature of the assay: BLI (Octet QK384), antibody captured on AHC sensors, His-tagged human HER3 in solution, without NRG1. How it is done: Binding of anti-HER3 antibodies to human HER3 was evaluated by BLI. Briefly, anti-Human IgG Capture (AHC) sensors (ForteBio) were loaded with anti-HER3 IgG antibodies (25 nM). Kinetic measurements were performed in absence or presence of NRG1. NRG1 was used at 1:1 molar ratio with HER3 wherein the complex was allowed to form at RT for 2 h. […] All measurements were performed at 25° C. with agitation at 1000 rpm. Sensorgrams were referenced for buffer effects and then analyzed using the Octet QK384-software (ForteBio). Kinetic responses were globally fitted using a one-site binding model to obtain values for association (Kₒₙ), dissociation (Koff) rate constants and the equilibrium dissociation constant (KD).

For assay [9], the target named is T6, FcgRIIA (R167) (human, UniProt P12318).
T6 construct: recombinant; also called CD32A; hFcγRIIa167R
T6 sequence (receptor, looked up): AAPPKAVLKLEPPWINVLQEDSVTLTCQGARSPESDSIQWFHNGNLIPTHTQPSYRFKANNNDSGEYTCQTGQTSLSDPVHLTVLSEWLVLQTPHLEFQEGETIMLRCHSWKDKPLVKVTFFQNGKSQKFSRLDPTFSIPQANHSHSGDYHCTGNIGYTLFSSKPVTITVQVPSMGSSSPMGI
Nature of the assay: Bio-Layer Interferometry (determined as described in Example 7).

For assay [10], the target named is T7, FcRn (human, UniProt P55899).
T7 construct: recombinant; also called human FcRn; gene FCGRT (so in the source)
The description is as above.

Assay [11] deals with T8, His-tagged FcγRIIIa (V158) (human, UniProt P08637 17-208).
T8 construct: not shown: His tag
Described as above.

Assay [12] addresses T9, FcgRIIA (H167) (human, UniProt P12318).
T9 construct: recombinant; also called CD32A; hFcγRIIa167H
T9 sequence (receptor, looked up): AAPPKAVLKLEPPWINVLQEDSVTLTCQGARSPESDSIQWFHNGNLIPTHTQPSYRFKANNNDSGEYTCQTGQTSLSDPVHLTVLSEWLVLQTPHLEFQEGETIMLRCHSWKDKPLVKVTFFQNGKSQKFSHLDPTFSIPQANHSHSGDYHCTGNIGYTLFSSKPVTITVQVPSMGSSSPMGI
The assay is described as above.

For assay [13], the target named is T10, human HER2 (human, UniProt P04626 23-652).
T10 construct: also called human HER2 (Sino Biological Inc.)
Put plainly: ELISA; plate coated with target polypeptide, absorbance 450 nm. As for the experimental part: (§2) The antibodies were analysed for their ability to bind to human HER3 polypeptide as well as human HER1 (EGFR) and human HER2 (Sino Biological Inc., China).
as §1

For assay [14], the target named is T11, human EGFR (human, UniProt P00533 25-645).
T11 construct: also called human HER1 (EGFR) (Sino Biological Inc.)
The description is as above. How it is done: as §2, §1

T1 sequence (Q61526 20-641 limits assumed): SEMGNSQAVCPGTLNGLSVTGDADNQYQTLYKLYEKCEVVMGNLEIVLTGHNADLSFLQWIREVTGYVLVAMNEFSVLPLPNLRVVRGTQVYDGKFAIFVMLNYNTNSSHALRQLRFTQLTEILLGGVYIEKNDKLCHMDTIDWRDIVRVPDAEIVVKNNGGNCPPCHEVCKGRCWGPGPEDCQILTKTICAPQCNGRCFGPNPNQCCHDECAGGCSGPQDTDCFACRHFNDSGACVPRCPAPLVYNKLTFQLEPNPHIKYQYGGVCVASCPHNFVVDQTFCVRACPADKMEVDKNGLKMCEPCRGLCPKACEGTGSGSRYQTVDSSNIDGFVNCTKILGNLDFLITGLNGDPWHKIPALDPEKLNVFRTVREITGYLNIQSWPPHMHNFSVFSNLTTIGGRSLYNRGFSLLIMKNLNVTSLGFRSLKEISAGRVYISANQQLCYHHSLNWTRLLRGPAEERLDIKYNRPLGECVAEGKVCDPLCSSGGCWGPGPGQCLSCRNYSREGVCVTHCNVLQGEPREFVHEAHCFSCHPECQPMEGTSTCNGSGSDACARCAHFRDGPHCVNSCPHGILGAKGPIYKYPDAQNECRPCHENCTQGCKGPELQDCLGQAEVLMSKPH
T4 sequence (Q62799 20-641 limits assumed): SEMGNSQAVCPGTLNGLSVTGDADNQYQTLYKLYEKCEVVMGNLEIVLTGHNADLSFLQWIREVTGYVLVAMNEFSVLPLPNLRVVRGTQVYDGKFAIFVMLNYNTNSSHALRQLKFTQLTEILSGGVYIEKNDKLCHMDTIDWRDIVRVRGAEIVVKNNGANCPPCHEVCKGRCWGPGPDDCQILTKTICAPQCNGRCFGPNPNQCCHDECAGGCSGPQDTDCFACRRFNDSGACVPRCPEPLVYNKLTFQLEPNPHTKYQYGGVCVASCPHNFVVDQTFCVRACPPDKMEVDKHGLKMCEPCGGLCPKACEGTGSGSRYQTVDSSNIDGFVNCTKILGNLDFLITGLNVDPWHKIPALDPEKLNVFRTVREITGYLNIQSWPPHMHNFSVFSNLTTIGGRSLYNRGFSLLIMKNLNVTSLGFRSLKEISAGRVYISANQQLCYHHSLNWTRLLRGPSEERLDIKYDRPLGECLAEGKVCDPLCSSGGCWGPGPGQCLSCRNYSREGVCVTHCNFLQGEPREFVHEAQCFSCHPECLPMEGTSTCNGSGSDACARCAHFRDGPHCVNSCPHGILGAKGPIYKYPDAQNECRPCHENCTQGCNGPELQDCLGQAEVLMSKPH

B1: 10D1F.FcA (anti-HER3 clone 10D1_c89 IgG1) (antibody)
heavy: not shown
light: DIQMTQSPSSVSASVGDRVTITCKASQIVGSNVAWYQQKPGKAPEPLIYSASYLYSGVPSRFSGSGSGTDFTLTISSLQPEDFATYYCQQYSSHPLTFGQGTKLEIKRTVAAPSVFIFPPSDEQLKSGTASVVCLLNNFYPREAKVQWKVDNALQSGNSQESVTEQDSKDSTYSLSSTLTLSKADYEKHKVYACEVTHQGLSSPVTKSFNRGEC
notes: also called 10D1F.A; HMBD-001
On to B1, for which the EC50 came to 0.0332 nM in assay [1], 0.0258 nM in assay [2], 0.0144 nM in [3] and 0.0303 nM in [4]. The Kd is 0.0726 nM in [5]; under 0.001 nM in assay [8]; 976 nM in assay [9]; 47.6 nM in assay [10]; 986 nM in assay [11]; 1800 nM in assay [12]. Also, the koff in assay [5] is 2.16e-05 s⁻¹; in [8], under 1e-07 s⁻¹. Further, the kon is 297000 M⁻¹ s⁻¹ in assay [5] and 199000 M⁻¹ s⁻¹ in assay [8]. In addition, half-maximal inhibition in assay [6] (IC50) was put at 78.8 nM. Moreover, the concentration giving a half-maximal response (EC50 (read off the curve)) in assay [7] was about 2 ng/mL. For the same molecule, the binding result in [13] and in [14] was “no binding” throughout.

The term EC50 denotes the concentration giving half of the maximal effect. For orientation: Kd means the equilibrium constant for the complex coming apart. A low value points to higher affinity. What is called koff is a measure of how fast the partners let go of each other. A high value points to a short-lived complex. One may read the kon as a measure of how fast the partners come together. A low value points to slow association. As usually defined, the IC50 is the midpoint of a concentration-inhibition curve. In general, EC50 (read off the curve) refers to the concentration that produces a half-maximal response. Read a low EC50 (read off the curve) as a more potent agent.
